The values that follow come from US20230056252A1 (Gilead, published 2023).

Some results are limits rather than exact numbers.

Assay [1] deals with T1, MabSelect SuRe (engineered Protein A).
T1 construct: also called MabSelect SuRe column
Briefly: 500 ml Expi293 expression, MabSelect SuRe capture and cation exchange; purified homodimer yield; parental reference.
Method: 500 ml of Expi293 cells were transfected with 0.5 mg DNA encoding selected huSP34 scFv-Fc Protein A knockout variants according to manufacturer's protocol. Four days post transfection, the cell-free clarified supernatant was collected and loaded to a MabSelect™ SuRe™ (Cytiva Life Sciences) column. Afterwards the column was washed with a low salt buffer of 25 mM Tris HCl pH 7.5, 25 mM NaCl for 10 column volumes (CV), then high salt wash of 25 mM Tris HCl pH 7.5, 500 mM NaCl for 5CV to remove non-specific binding, and finally washed with a low salt wash of 25 mM Tris HCl pH 7.5, 25 mM NaCl for 10CV. To elute the antibody, an isocratic elution step of 100 mM sodium acetate pH 3.7 was performed. The eluted pool was neutralized to pH 6.0 with 1 M Tris HCl pH 9.0, and subjected to a cation ion purification, HiTrap SP HP (Cytiva Life Sciences) to further remove impurities. The cation captured protein was washed with 10 mM sodium phosphate pH 7.0 for 10CV, then eluted in 0-30% gradient of 10 mM sodium phosphate pH 7.0, 1M NaCl for 50CV to separate the desired two targeting arm antibody (heterodimer) from the one targeted arm antibody (homodimer). […] Concentration of the formulated protein was measured by A280. Purity was assessed as percent monodispersed by analytical size-exclusion chromatography. Identity of the bispecific antibody was determined by Mass Spec (MS).

In assay [2] the target is T2, biotinylated CD3 epsilon: delta heterodimer protein (Amsbio AMS.CDD-H52WO) (Homo sapiens (Human), UniProt P07766 23-126; P04234 22-105). Briefly: BLI (Octet), corresponding huSP34 Fab variant. On the technique in general: In BLI a coated tip is dipped into the sample, and binding shifts an interference pattern.
Method: (§1) The CD3 binding kinetics of the purified huSP34 Fabs were determined using OctetRed384 (Pall ForteBio, CA) biolayer interferometry (BLI). […] Streptavidin (SA) coated biosensors tips (Pall ForteBio, CA) were used to capture biotinylated CD3 epsilon: delta heterodimer and typical immobilization levels captured on the SA sensors were 1 nm which approximately translates to 300 ng/ml of captured protein. For kinetic measurements biosensors were first pre-wetted with assay buffer for 10 minutes to remove protective sucrose coating followed by the recommended regeneration conditions for standardization of the biosensor surface for the experiment. In order to load the biosensors with antigen, 300 ng/ml of biotinylated CD3 epsilon: delta heterodimer protein (Amsbio AMS.CDD-H52WO) was immobilized on the SA sensor for 900 seconds. The CD3 loaded biosensors were then blocked with 20 ug/ml biocytin (sigma) for 200 seconds and then dipped into assay buffer containing wells for 200 seconds to remove any non-specific protein or unbound CD3 heterodimer.
(§2) CD3 loaded and biocytin blocked biosensors were then transferred into fresh assay buffer for 200 seconds to collect a baseline read. Kinetic measurements for anti-CD3 Fab and bispecific antibody binding were performed by dipping the CD3-coated biosensors into wells containing multiple concentrations of Fab or Ab (0-300 nM) for 100 seconds followed by a 300 second dissociation time by transferring the biosensors into assay buffer containing wells. The CD3 loaded sensors were then regenerated for the next kinetic measurement. Biosensors were generated by removing bound Fabs or Ab from immobilized CD3 on SA biosensors. Regeneration conditions used consisted of 3 cycles of 5 seconds of dipping the biosensors in Regeneration Buffer (10 mM Glycine HCl pH 1.5) followed by Assay Buffer (10 mM sodium phosphate pH 7.4, 140 mM Sodium Chloride, 0.005% Tween20 with 0.2% BSA).
Assay [3] concerns the target T2, biotinylated CD3 epsilon: delta …. Briefly: BLI (Octet), huSP34 variant in Fab format.
Method: as §1, §2
In assay [4] the target is T3, CD3 expressed on cell-surface of primary human T cells (human, UniProt P07766 23-207; P04234 22-171).
T3 construct: also called cell-surface CD3; human CD3
Briefly: flow cytometry competition vs murine SP34-AF488 on human T cells, n = 1. A general note: In flow cytometry, cells or beads pass a laser one at a time.
Method: (§3) Binding of humanized SP34 Fab variants to CD3 expressed on cell-surface of primary human T cells was evaluated in a flow cytometry-based competition assay.

For assay [5], the target named is T3, CD3 expressed on cell-surface of …. Briefly: flow cytometry competition vs murine SP34-AF488 on human T cells, n = 2.
Method: as §3
For assay [6] the target is unchanged. Briefly: flow cytometry competition vs murine SP34-AF488 on human T cells, average.
Method: as §3
Assay [7] has as its target T2, biotinylated CD3 epsilon: delta …. Briefly: BLI (Octet), corresponding huSP34 Fab variant. This is another data set of the same source.
Method: as §1
CD3 loaded and biocytin blocked biosensors were then transferred into fresh assay buffer for 200 seconds to collect a baseline read. […]
In assay [8] the target is T3, CD3 expressed on cell-surface of …. Briefly: flow cytometry competition vs murine SP34-AF488 on human T cells, n = 2. The source holds these as a separate data set.
Method: as §3
(§4) A second round of huSP34 Fab variants were characterized using the same flow cytometry-based competition assay as described above.
Assay [9] shares this target. Kind of assay: flow cytometry competition vs murine SP34-AF488 on human T cells, average. The source holds these as a separate data set.
Method: as §3, §4
Assay [10] shares this target. Briefly: flow cytometry competition vs murine SP34-AF488 on human T cells, n = 1. The source holds these as a separate data set.
Method: as §3, §4
The target of assay [11] is T4, CD3 on cynomolgus monkey T cells in PBMCs (cynomolgus monkey, UniProt Q95LI5 22-198).
T4 construct: whole, on cells; also called cynomolgus CD4+ and CD8+ T cells
T4 sequence (Q95LI5 22-198): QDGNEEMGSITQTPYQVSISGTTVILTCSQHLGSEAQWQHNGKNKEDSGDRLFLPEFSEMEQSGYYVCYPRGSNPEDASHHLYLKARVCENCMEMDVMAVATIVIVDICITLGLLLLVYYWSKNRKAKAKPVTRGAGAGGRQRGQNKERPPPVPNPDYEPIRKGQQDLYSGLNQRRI
Kind of assay: flow cytometry on PBMCs, % anti-huIgG+ CD4+ cells, donor cy 2177.
Method: (§5) Briefly, PBMCs from healthy human donors and healthy rhesus or cynomolgus monkey donors were incubated with different concentrations of HIV×CD3 bispecific molecules for 1 hour at RT. […] Cells were then washed, fixed/permeabilized, and analyzed on BD LSRFortessa. The percentage of α-huIgG-APC-positive CD4+ and CD8+ T cells and the mFI of the α-huIgG-APC of CD4+ and CD8+ cells were collected, and data analyzed using GraphPad Prism.

Assay [12] deals with T4, CD3 on cynomolgus monkey T cells in …. Briefly: flow cytometry on PBMCs, % anti-huIgG+ CD8+ cells, donor cy 2177.
Method: as §5
The target of assay [13] is T3, CD3 expressed on cell-surface of …. Briefly: flow cytometry on PBMCs, % anti-huIgG+ CD4+ cells, donor hu 711.
Method: as §5
Assay [14] shares this target. Briefly: flow cytometry on PBMCs, % anti-huIgG+ CD4+ cells, donor hu 921.
Method: as §5
Assay [15] has the same target. Kind of assay: flow cytometry on PBMCs, % anti-huIgG+ CD8+ cells, donor hu 921.
Method: as §5
Assay [16] has the same target. Briefly: flow cytometry on PBMCs, % anti-huIgG+ CD8+ cells, donor hu 711.
Method: as §5

B1: huSP34.13.8 scFv AAS + SAV + R (Fc fusion)
chain: EVQLVESGGGLVQPGGSLRLSCAASGFTFSTYAMNWVRQAPGKGLEWVGRIRSKYNNYATYYAASVKGRFTISRDDSKNTLYLQMNSLRTEDTAVYYCVRHGNFGHSYVSWFAYWGQGTLVTVSSGGGGSGGGGSGGGGSGGGGSQAVVTQEPSLTVSPGGTVTLTCGSSTGAVTTGHYANWVQQKPGQAPRGLIGGTNKRAPGVPARFSGSLLGGKAALTISGAQPEDEAEYYCALWYSNRWVFGGGTKLTVLEPKSSDKTHTCPPCPAPEAAGGPSVFLFPPKPKDTLMISRTPEVTCVVVDVSHEDPEVKFNWYVDGVEVHNAKTKPREEQYNSTYRVVSVLTVLHQDWLNGKEYKCKVSNKALPASIEKTISKAKGQPREPQVYTLPPSREEMTKNQVSLSCAVKGFYPSDIAVEWESNGQPENNYKTTPPVLDSDGSFFLVSKLTVDKSRWQQGNVFSCSVMHEALHNRYTQKSLSLSPGK
notes: also called huSP34.13.8scFv-Fc; parent
Take B1: the “scFv-Fc Homodimer Yield Relative to WT (e.g. Protein A binding)” value in [1] came out at 100%.

B2: huSP34.3.6 Fab-HF (Fab, V domains shown)
VH: EVQLVESGGGLVQPGGSLRLSCAASGFTFNTYAMNWVRQAPGKGLEWVGRIRSKYNNYATYYADSVKGRFTISRDDSKNSLYLQMNSLRTEDTAVYYCVRHGNFGHSYVSWFAYWGQGTLVTVSS
VL: QAVVTQPPSLTVSPGGTVTLTCGSSTGAVTTGHYANWVQQKPGQAPRGLIGGTSNRAPGVPARFSGSLSGGKAALTISGAQPEDEAEYYCALWYSARWVFGGGTKLTVL
Broadly, the Kd is the free concentration of one partner at which half of the binding sites on the other are occupied at equilibrium, for simple one-to-one binding. By IC50 is commonly meant the concentration that gives 50% inhibition. In the case of B2, the Kd in [2] and in assay [3] was 19 nM throughout. Also, the results for the IC50 in assay [4], in assay [5] and in [6] were 8.48 µg/mL, 1.03 µg/mL and 4.75 µg/mL, respectively.

B3: huSP34.13.8 Fab-HF (Fab, V domains shown)
VH: EVQLVESGGGLVQPGGSLRLSCAASGFTFSTYAMNWVRQAPGKGLEWVGRIRSKYNNYATYYAASVKGRFTISRDDSKNTLYLQMNSLRTEDTAVYYCVRHGNFGHSYVSWFAYWGQGTLVTVSS
VL: QAVVTQEPSLTVSPGGTVTLTCGSSTGAVTTGHYANWVQQKPGQAPRGLIGGTNKRAPGVPARFSGSLLGGKAALTISGAQPEDEAEYYCALWYSNRWVFGGGTKLTVL
In the case of B3, the dissociation constant Kd in [7] is 2.49 nM. Besides, the IC50 amounted to 0.14 µg/mL in assay [8], 0.25 µg/mL in assay [9] and 0.36 µg/mL in assay [10].

B4: huSP34.4.2 Fab-HF (Fab, V domains shown)
VH: EVQLVESGGGLVQPGGSLRLSCAASGFTFSTYAMNWVRQAPGKGLEWVGRIRSKYNNYATYYAASVKGRFTISRDDSKNSLYLQMNSLRTEDTAVYYCVRHGNFGHSYVSWFAVWGQGTLVTVSS
VL: QAVVTQEPSLTVSPGGTVTLTCGSSTGAVTTSNYANWVQQKPGQAPRGLIGGTSNRAPWTPARFSGSLLGGKAALTLSGAQPEDEAEYYCALWYSNLWVFGGGTKLTVL
The molecule B4 displayed an equilibrium dissociation constant (Kd) in assay [7] of 45.3 nM. Besides, the IC50 in [4] and in assay [5] was more than 20 µg/mL in each case.

B5: hCD4 D1.22 Fc AAS + W + YTE/huSP34.39.13 AAS + SAV + R (bispecific antibody, human IgG1, lambda, L234A L235A)
chain: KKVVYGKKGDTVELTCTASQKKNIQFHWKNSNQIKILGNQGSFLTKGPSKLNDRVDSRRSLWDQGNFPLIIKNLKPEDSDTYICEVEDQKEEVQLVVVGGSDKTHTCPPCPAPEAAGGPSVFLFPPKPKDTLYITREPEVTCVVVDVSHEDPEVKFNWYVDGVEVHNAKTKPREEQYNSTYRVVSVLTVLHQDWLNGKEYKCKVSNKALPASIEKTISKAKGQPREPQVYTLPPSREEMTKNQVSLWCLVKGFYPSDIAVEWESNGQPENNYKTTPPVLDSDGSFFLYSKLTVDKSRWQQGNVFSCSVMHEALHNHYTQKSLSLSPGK
heavy: EVQLVESGGGLVQPGGSLRLSCAASGFTFNTYAMNWVRQAPGKGLEWVGRIRSKYNNYATYYADSVKSRFTISRDDSKNSLYLEMNSLRTEDTAVYYCVRHGNFGHSYVSWFAYWGQGTLVTVSSASTKGPSVFPLAPSSKSTSGGTAALGCLVKDYFPEPVTVSWNSGALTSGVHTFPAVLQSSGLYSLSSVVTVPSSSLGTQTYICNVNHKPSNTKVDKKVEPKSCDKTHTCPPCPAPEAAGGPSVFLFPPKPKDTLMISRTPEVTCVVVDVSHEDPEVKFNWYVDGVEVHNAKTKPREEQYNSTYRVVSVLTVLHQDWLNGKEYKCKVSNKALPASIEKTISKAKGQPREPQVYTLPPSREEMTKNQVSLSCAVKGFYPSDIAVEWESNGQPENNYKTTPPVLDSDGSFFLVSKLTVDKSRWQQGNVFSCSVMHEALHNRYTQKSLSLSPGK
light: QAVVTQEPSLTVSPGGTVTLTCGSSTGAVTTGHYANWVQQKPGQAPRGLIGGTSNRAPGVPARFSGSLLGGKAALTISGAQPEDEAEYYCALWYSNRWVFGGGTKLTVLGQPKAAPSVTLFPPSSEELQANKATLVCLISDFYPGAVTVAWKADSSPVKAGVETTTPSKQSNNKYAASSYLSLTPEQWKSHRSYSCQVTHEGSTVEKTVAPTECS
notes: also called 180; CD4 x huSP34 bispecific 180
As usually defined, the EC50 is the midpoint of the concentration-response curve. As to B5, the EC50 in assay [11] turned out to be 0.5 µg/mL; in assay [12], 1.09 µg/mL; in assay [13] it was 0.54 µg/mL; in [14], 0.09 µg/mL; in [15], 0.08 µg/mL; in [16], 1.1 µg/mL.
